Source: US20050215478A1, “Amino acid sequences capable of facilitating penetration across a biological barrier” (priority 2002, published 2005)
Several values for one entry are separate records, joined by “and”; a condition that tells them apart may be missing. Equal entries are not always repeated.

Assay: Formulation development: recovery of ^125I-IBW-002 after intestine loop injection, urine included (Example 2)
Format: in vivo, mouse
Settings: intestinal loop; for recovered cpm/mouse: blood 60′, organs and urine; for blood 15′, total cpm in the blood / blood 30′, total cpm in the blood / blood 60′, total cpm in the blood / blood 5′, total cpm in the blood / blood 10′, total cpm in the blood / blood 20′, total cpm in the blood: calculated from 50 μl sample assuming 2 ml blood
Experimental: The mice were anesthetized by i.p. injection of 0.05 ml of a mixture of 0.15 ml xylazine+0.85 ml of ketamin. A 2 cm long incision was made along the center of the abdomen, through the skin and abdominal wall. An intestine loop was gently pulled out through the incision and placed on wet gauze beside the animal. The loop remained intact through the entire procedure and was kept wet during the whole time. The tested compound was injected into the loop, 0.2 ml/ mouse, containing around 200,000 cpm, using a 26G needle. […] The animals were subsequently sacrificed. The following organs were removed: epididymal fat, kidneys, liver, lungs and brain. Radioactivity in each organ and in blood samples was counted. A 5 μl sample of the injected solution was counted to determine the total injected cpm per mouse.
To reach an improved formulation, a number of compounds were tested in experiments similar to that described in Example 1, with the following change: urine was collected and the measured radioactivity was added to that of the recovered tissues. […]
The total radioactive labeling injected per mouse was 195,900 cpm. Total cpm in the blood was calculated based on the 50 μl blood sample drawn out at different time points post injection, in the assumption that total blood volume of each mouse is 2 ml.
The total radioactive labeling injected per mouse was 143,000 cpm. Total cpm in the blood was calculated based on the 50 μl blood sample drawn out at different time points post injection, in the assumption that total blood volume of each mouse is 2 ml.

[1] = Table 5 formulation (PE 6,200), 125,320 cpm injected per mouse, individual mice, listed as 125I-IBW-002
[2] = Table 5 formulation (PE 6,200), 125,320 cpm injected per mouse, mean of 2 mice
[3] = Table 8 formulation (PE 6,200 + Taurodeoxycholic acid), 195,900 cpm injected per mouse, individual mice, listed as 125I-IBW-002
[4] = Table 8 formulation (PE 6,200 + Taurodeoxycholic acid), 195,900 cpm injected per mouse, mean of 4 mice
[5] = Table 11 formulation (Pluronic F-68 + Taurodeoxycholic acid), 143,000 cpm injected per mouse, individual mice, listed as 125I-IBW-002
[6] = Table 11 formulation (Pluronic F-68 + Taurodeoxycholic acid), 143,000 cpm injected per mouse, mean of 4 mice

Ac-NYYDITLALAGICQSARLVQQLAGGGKGGK-NH2 (Ac-NYYDITLALAGICQSARLVQQLAGGGKGGK-NH2; also: 125I label) [IBW-002, ^125I-labeled using the Bolton Hunter Reagent for in vivo tests]
recovered cpm/mouse [1]: 35,759 cpm and 40,067 cpm
recovered cpm/mouse [2]: 37,913 cpm
blood 15′, total cpm in the blood [1]: 19,920 cpm and 19,560 cpm
blood 30′, total cpm in the blood [1]: 18,800 cpm and 15,880 cpm
blood 60′, total cpm in the blood [1]: 14,560 cpm and 10,960 cpm
blood 15′, total cpm in the blood [2]: 19,740 cpm
blood 30′, total cpm in the blood [2]: 17,340 cpm
blood 60′, total cpm in the blood [2]: 12,760 cpm
blood/injected cpm (%), 15′ [1]: 15.90% and 15.61%
blood/injected cpm (%), 30′ [1]: 15.00% and 12.67%
blood/injected cpm (%), 60′ [1]: 11.62% and 8.75%
brain, cpm recovered [1]: 95 cpm and 110 cpm
epididimal fat, cpm recovered [1]: 321 cpm and 288 cpm
kidney, cpm recovered [1]: 2,564 cpm and 3,799 cpm
liver, cpm recovered [1]: 2,994 cpm and 2,786 cpm
lungs, cpm recovered [1]: 476 cpm and 377 cpm
recovered cpm/injected cpm (%) [1]: 28.53% and 31.97%
urine, cpm recovered [1]: 14,749 cpm and 21,747 cpm
blood/injected cpm (%), 15′ [2]: 15.75%
blood/injected cpm (%), 30′ [2]: 13.84%
blood/injected cpm (%), 60′ [2]: 10.18%
brain, cpm recovered [2]: 103 cpm
epididimal fat, cpm recovered [2]: 305 cpm
kidney, cpm recovered [2]: 3,182 cpm
liver, cpm recovered [2]: 2,890 cpm
lungs, cpm recovered [2]: 427 cpm
recovered cpm/injected cpm (%) [2]: 30.25%
urine, cpm recovered [2]: 18,248 cpm
recovered cpm/mouse [3]: 93,914 cpm and 68,380 cpm and 89,969 cpm and 90,520 cpm
recovered cpm/mouse [4]: 85,446 cpm
blood 15′, total cpm in the blood [3]: 40,600 cpm and 39,440 cpm and 51,920 cpm and 36,200 cpm
blood 30′, total cpm in the blood [3]: 37,440 cpm and 31,720 cpm and 48,440 cpm and 34,720 cpm
blood 60′, total cpm in the blood [3]: 33,880 cpm and 23,080 cpm and 40,840 cpm and 30,200 cpm
blood 15′, total cpm in the blood [4]: 42,040 cpm
blood 30′, total cpm in the blood [4]: 38,080 cpm
blood 60′, total cpm in the blood [4]: 32,000 cpm
blood/injected cpm (%), 15′ [3]: 20.72% and 20.13% and 26.50% and 18.48%
blood/injected cpm (%), 30′ [3]: 19.11% and 16.19% and 24.73% and 17.72%
blood/injected cpm (%), 60′ [3]: 17.29% and 11.78% and 20.85% and 15.42%
brain, cpm recovered [3]: 206 cpm and 176 cpm and 284 cpm and 173 cpm
epididimal fat, cpm recovered [3]: 1,081 cpm and 805 cpm and 903 cpm and 846 cpm
kidney, cpm recovered [3]: 9,513 cpm and 7,878 cpm and 10,661 cpm and 8,929 cpm
liver, cpm recovered [3]: 8,194 cpm and 5,154 cpm and 9,615 cpm and 8,708 cpm
lungs, cpm recovered [3]: 1,048 cpm and 636 cpm and 1,221 cpm and 1,303 cpm
recovered cpm/injected cpm (%) [3]: 47.94% and 34.91% and 45.42% and 46.21%
urine, cpm recovered [3]: 39,992 cpm and 30,651 cpm and 25,445 cpm and 40,361 cpm
blood/injected cpm (%), 15′ [4]: 21.46%
blood/injected cpm (%), 30′ [4]: 19.44%
blood/injected cpm (%), 60′ [4]: 16.33%
brain, cpm recovered [4]: 210 cpm
epididimal fat, cpm recovered [4]: 909 cpm
kidney, cpm recovered [4]: 9,245 cpm
liver, cpm recovered [4]: 7,918 cpm
lungs, cpm recovered [4]: 1,052 cpm
recovered cpm/injected cpm (%) [4]: 43.62%
urine, cpm recovered [4]: 34,112 cpm
recovered cpm/mouse [5]: 78,079 cpm and 67,291 cpm and 64,828 cpm and 79,362 cpm
recovered cpm/mouse [6]: 72,390 cpm
blood 5′, total cpm in the blood [5]: 29,400 cpm and 29,120 cpm and 34,240 cpm and 32,920 cpm
blood 10′, total cpm in the blood [5]: 26,680 cpm and 32,320 cpm and 28,200 cpm and 27,760 cpm
blood 20′, total cpm in the blood [5]: 20,280 cpm and 30,960 cpm and 27,240 cpm and 21,800 cpm
blood 60′, total cpm in the blood [5]: 11,880 cpm and 22,840 cpm and 16,280 cpm and 14,440 cpm
blood 5′, total cpm in the blood [6]: 31,420 cpm
blood 10′, total cpm in the blood [6]: 28,740 cpm
blood 20′, total cpm in the blood [6]: 25,070 cpm
blood 60′, total cpm in the blood [6]: 16,360 cpm
blood/injected cpm (%), 5′ [5]: 20.56% and 20.36% and 23.94% and 23.02%
blood/injected cpm (%), 10′ [5]: 18.66% and 22.60% and 19.72% and 19.41%
blood/injected cpm (%), 20′ [5]: 14.18% and 21.65% and 19.05% and 15.24%
blood/injected cpm (%), 60′ [5]: 8.31% and 15.97% and 11.38% and 10.10%
brain, cpm recovered [5]: 76 cpm and 106 cpm and 94 cpm and 74 cpm
epididimal fat, cpm recovered [5]: 375 cpm and 591 cpm and 462 cpm and 465 cpm
kidney, cpm recovered [5]: 2,397 cpm and 4,407 cpm and 5,018 cpm and 5,772 cpm
liver, cpm recovered [5]: 3,516 cpm and 6,546 cpm and 6,561 cpm and 4,807 cpm
lungs, cpm recovered [5]: 393 cpm and 643 cpm and 582 cpm and 533 cpm
recovered cpm/injected cpm (%) [5]: 54.60% and 47.06% and 45.33% and 55.50%
urine, cpm recovered [5]: 59,442 cpm and 32,158 cpm and 35,831 cpm and 53,271 cpm
blood/injected cpm (%), 5′ [6]: 21.97%
blood/injected cpm (%), 10′ [6]: 20.10%
blood/injected cpm (%), 20′ [6]: 17.53%
blood/injected cpm (%), 60′ [6]: 11.44%
brain, cpm recovered [6]: 88 cpm
epididimal fat, cpm recovered [6]: 473 cpm
kidney, cpm recovered [6]: 4,399 cpm
liver, cpm recovered [6]: 5,358 cpm
lungs, cpm recovered [6]: 538 cpm
recovered cpm/injected cpm (%) [6]: 50.62%
urine, cpm recovered [6]: 45,176 cpm
